Laboratory results taken from the supplement of paper PMC10567573.
± gives the standard deviation.

Assay: protein stability index of a GFP-peptide fusion (GPS, HEK-293T) (PSI 1-6); higher = more stable
Settings: c terminus: a fixed tail appended
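Also: 24-mer peptide tiles fused after GFP, lentivirally expressed, FACS-sorted into six equal bins by GFP/DsRed ratio, decoded by Illumina sequencing, PSI is the read-weighted mean bin number.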

Sequence	protein stability index (treatment: DMSO)	protein stability index (treatment: MLN4924 1 uM, 8 h)
MIIEHKIVIADVKLVADFQRYILY [ZNF277]	3.58 ± 0.73	2.74 ± 1.1
ILSGKFTILNVRDPTGASIALFTA [PTPN9]	2.84 ± 0.73	3.19 ± 0.74
VTSVSIELEKNFSNFPRQYFALRK [TRIM39]	2.47 ± 0.25	2.5 ± 0.15
TVLTRHSQPATPTPLQSRTSIVQA [PDLIM7]	3.77 ± 0.093	3.8 ± 0.28
QMPPVIVETARSHQRSSSESYTQS [PI4K2A]	4.6 ± 0.28	4.72 ± 0.16
QSLDQEILLKVKTEIEEELKSLDK [BCL2L13]	4.51 ± 0.42	4.93 ± 0.24
KQLIYRVRRTDDTPVVLVGNKSDL [RIT1]	3.06 ± 0.26	3.23 ± 0.23
GLSPEEKEQLSNDRETQEGKPPTA [ELOA2]	5.6 ± 0.22	5.31 ± 0.46
FSEPSFITESYQTLHPISSEELLS [ETS1]	2.77 ± 0.4	3.28 ± 0.41
TKAGHSLELIEPLIKFQVGLKKLN [VDR]	2.19 ± 0.38	2.42 ± 0.25
REHVCRKDQRNPPSLGRVLPDPRE [RBMY1A1]	4.69 ± 0.22	4.8 ± 0.24
IAGGLAGMGGIQNEKETMQSLNDR [KRT18]	4.83 ± 0.24	4.81 ± 0.33
FIEGYCTPEEVIWEALNMMGLYDG [MAGEA10]	2.48 ± 0.24	2.17 ± 0.26
YSQASELPTDAVDCMSRELVSLTS [FBXO34]	4.03 ± 0.14	4.11 ± 0.11
YVVLAYTLPPASRFIIIFEQIRFV [SOAT1]	3.27 ± 0.48	2.93 ± 0.53
SIIAVAMQRGARLPAEVAGLSQVL [POMT2]	2.35 ± 0.59	2.01 ± 0.18
AGSSHTPSSQSSSGGGRDSSSSIL [ELOA2]	4.82 ± 0.26	4.78 ± 0.14
SNYFSMDSMEGKRSPYAGLQLGAA [TRIM29]	2.88 ± 0.3	2.99 ± 0.22
QALLIRERILGPSHPDTSYYIRYR [FEM1A]	2.31 ± 0.2	2.56 ± 0.33
LTEIYRIVSQKQMSDRRENDMSPS [RAB11A]	3.54 ± 0.2	3.81 ± 0.12
LTYACENGHTDVADVLLQAGADLE [ANKRD17]	4.3 ± 0.16	4.68 ± 0.35
PFPAGPLAVAGGPRKTAAPVNALV [ESRRA]	3.7 ± 0.34	3.61 ± 0.31

Sequence	protein stability index (treatment: DMSO)	protein stability index (treatment: MLN4924 1 uM, 8 h)
QQSDLGQYVTFLRSFSDKQKISLL [ALG2]	2.22 ± 0.24	2.29 ± 0.23
AGINTHSNEFKESALTLACYKGHL [ANKRD17]	2.76 ± 0.19	2.86 ± 0.47
PQVFVSNKINAGMYILSPAVLRRI [GMPPB]	2.21 ± 0.39	2.06 ± 0.26
YAHQMVRTDSREQKLDAFLQPLSK [MLH1]	2.98 ± 0.3	3.35 ± 0.35
ESIDFDQGELADQDVDPVHNLIEQ [FBXO33]	5.51 ± 0.16	5.22 ± 0.26
DSVPFHLGWNSTERSLRLQARYHD [MYORG]	3.59 ± 0.24	3.51 ± 0.17
LVMASLYHIYVALEEEIERNKESP [HMOX1]	2.27 ± 0.19	2.22 ± 0.44
PKAERLRWSPAQEESFRQMVVIHK [ZNF232]	3.19 ± 0.31	3.25 ± 0.37
EEALENGPKESLPVIAAPSMWTRP [ACBD3]	4.64 ± 0.12	4.47 ± 0.24
QCLDKTNESALVKEKELSIELANI [MTUS2]	4.79 ± 0.27	4.77 ± 0.22
QIQKYTDCLQFYVNSTLKELRRLF [RTN1]	2.73 ± 0.37	2.55 ± 0.31
PANTQINDIRIFLEKVLEENAQKK [VPS39]	3.73 ± 0.22	3.61 ± 0.36
GTKQGHLLLYRIRKDVGCNRFEVT [VPS39]	2.12 ± 0.37	2.41 ± 0.28
CYNCEEEAMYHCCWNTSYCSIKCQ [ZMYND11]	2.61 ± 0.52	2.79 ± 0.47
TRLYLRSHRPNMELCRDAAQFRLL [TEKT4]	2.16 ± 0.44	2.27 ± 0.32
APSLRRHVLIHNTLQQLQAALRLA [SERTAD3]	2.21 ± 0.33	2.29 ± 0.13
MENLLQATKSHVDKVIMKLGKTNA [DYNC2LI1]	3.24 ± 0.28	3.34 ± 0.38
GLKGRTLYPAVSAVWGQCQVRIRY [SPSB2]	2.98 ± 0.77	2.67 ± 0.56
GGACPAFLPSLRPPPLTSPSHGSL [NCF4]	3.59 ± 0.092	3.71 ± 0.28
PSVFDGLGDLLMPTMAPAGQPAPV [SNAP91]	3.54 ± 0.25	3.57 ± 0.2
DKEGHLVCRIGDWLQERYEIVGNL [CLK3]	2.8 ± 0.56	2.89 ± 0.47
FPAEQYYRFHEHWRFVLQRLVFLA [TSN]	2.44 ± 0.42	2.22 ± 0.27

Sequence	protein stability index (treatment: DMSO)	protein stability index (treatment: MLN4924 1 uM, 8 h)
SWIQLPPMQERRASFYACRLDKHL [KLHL14]	2.32 ± 0.29	2.26 ± 0.34
GSDAEQSTSGQPYPTSDQEGDPGS [LCOR]	5.53 ± 0.35	5.59 ± 0.28
MELGPEPPHRRRLLFACSPPPASQ [CDC25A]	3.57 ± 0.2	3.47 ± 0.17
GAGEGAAASPELSALEEAFRRFAV [TPPP]	3.58 ± 0.58	3.74 ± 0.44
VLNVAGEAGGKQKAVEEELDAEDR [SLC6A17]	5.72 ± 0.17	5.69 ± 0.16
IDQWSMLGDMQTAREGAGLVVASG [KLHL12]	3.36 ± 0.15	3.52 ± 0.051
HQLYTSSSHHSHSYIGLPYADHNY [KMT2E]	2.5 ± 0.042	2.53 ± 0.21
AQKISKGADPKSVVCAFFKQGQCT [ZC3H15]	3.32 ± 0.34	3.31 ± 0.26
FRIIDSDHSGFISLDEFRQTWKLF [PPEF2]	2.97 ± 1	2.37 ± 0.48
HPGSGTKVQFNLQFTKPNASLGDV [SASS6]	3.17 ± 0.44	3.23 ± 0.23
ILSKVQKNHVGKPLLKMDLNSEQA [FAM98B]	3.62 ± 0.31	3.46 ± 0.47
WLQNTHVYSWPKNKKNILLRLLRE [TRAF3IP2]	2.08 ± 0.58	2.38 ± 0.42
NLQELLELDSSSSLCVLVSTVGKL [CEP70]	2.29 ± 0.49	2.43 ± 0.47
SWLTRRAIRPENRAPGAGLGQDRQ [EMD]	3.98 ± 0.27	4.05 ± 0.19
NIQIIEYEKKQTLGQNDTGFSCDG [BTBD1]	4.36 ± 0.4	4.034 ± 0.016
KAVMKTSVLLSWEIPENYNSAMPF [PTPRD]	2.26 ± 0.67	2.26 ± 0.43
LSAVPEEGDATRDPGPEPEEEPGV [PSD2]	5.77 ± 0.25	5.48 ± 0.49
TPLLAASVTGHTNIVEYLIQEQPG [FEM1A]	3.39 ± 0.17	3.67 ± 0.32
AQDLTEAEGWHFFCFQGEATRKLA [SAT2]	2.94 ± 0.36	3.32 ± 0.46
GASFTQKGNLLRHIKLHSGEKPFK [IKZF1]	3.77 ± 0.23	3.72 ± 0.28
SEVESAVWYVKKFGRYLEHLEVKF [FBXO39]	2.44 ± 0.22	2.47 ± 0.43
